This is an account of results in patent US20250145973, “CONDITIONED DNA MODIFYING ENZYME COMPRISING HETEROLOGOUS DNA BINDING DOMAIN” (Technische Universität Dresden Körperschaft des …, published 2025).

In the series the target is Brec1-Zif268 (aa278) Rmut (synthetic). Put plainly: cell_activity; 100 ug/ml L-arabinose, E. coli. As to conditions: tags: G-to-R in right linker.
Brec1-Zif268 (aa278) Rmut (synthetic), sequence (chain, as listed by the source): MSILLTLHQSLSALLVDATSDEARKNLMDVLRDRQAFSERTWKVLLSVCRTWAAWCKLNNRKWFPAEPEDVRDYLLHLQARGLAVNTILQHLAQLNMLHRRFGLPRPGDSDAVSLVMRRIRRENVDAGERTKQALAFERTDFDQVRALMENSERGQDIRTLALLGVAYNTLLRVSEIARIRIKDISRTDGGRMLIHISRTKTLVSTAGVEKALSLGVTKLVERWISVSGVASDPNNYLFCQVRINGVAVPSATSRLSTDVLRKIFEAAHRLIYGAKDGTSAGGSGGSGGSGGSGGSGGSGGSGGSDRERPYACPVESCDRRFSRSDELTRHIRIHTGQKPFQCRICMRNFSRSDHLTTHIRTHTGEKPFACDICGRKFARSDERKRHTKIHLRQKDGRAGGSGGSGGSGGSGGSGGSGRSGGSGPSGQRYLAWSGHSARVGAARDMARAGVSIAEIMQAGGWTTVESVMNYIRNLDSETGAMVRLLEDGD

B1: loxBTR-5-zif (A) (dsDNA)
DNA 1: AGCGTGGGCGTACTGAACCCACTGCTTAAGCCTCAATAAAGCTTGCCTTCAGTACGCCCACGCT
DNA 2: AGCGTGGGCGTACTGAAGGCAAGCTTTATTGAGGCTTAAGCAGTGGGTTCAGTACGCCCACGCT
Consider B1, for which the binding signal is 2.5 fold vs Brec1-Zif268.
